Data: US20180162952A1
“And” between values parts separate entries of the source, which are not always exact repeats. Equal entries are not always repeated.

How the values were obtained:
[1] = molecular target: human PTK7 on non-engineered cells (human), Q13308; experiment: cell-based or functional assay
[2] = molecular target: human PTK7 on non-engineered cells (human) (UniProt Q13308); experiment: cell-based or functional assay

B1: SC6.23 (antibody, V domains shown)
VH: QVTLKESGPGILKPSQTLSLTCSFSGFSLSTSNMGVGWIRQPSGKGLEWLAHIWWDDDKYYNPSLKSQLTISKDTSRNQVFLKITSVDTEDTATYYCVRSNYGYAWFAYWGQGTLVTVSA
VL: DIKMTQSPSSMYASLGERVTITCKASQDIYPYLNWFQQKPGKSPKTLIYRTNRLLDGVPSRFSGSGSGQDYSLTISSLDYEDMGIYYCLQYDEFPLTFGAGTKLELK
Question: What does the source list for B1?
Answer: EC50, saporin (Fab-ZAP) cell killing, G401 Cells [1]: 2.6 pM; EC50, saporin (Fab-ZAP) cell killing, HEK293T Cells [1]: 3 pM

B2: SC6.24 (antibody, V domains shown)
VH: QVQLQQSGPEVVRPGVSVKISCKGSGYTFTDYAVHWVKLSHAKSLEWIGVISTYNDYTYNNQDFKGKATMTVDKSSSTAYMELARLTSEDSAIYYCARGNSYFYALDYWGQGTSVTVSS
VL: DIVLTQSPASLAVSLGQRATISCRASESVDSYGKSFMHWYQQRPGQPPKLLIYRASNLESGIPARFSGSGSRTDFTLTINPVEADDVATYYCQQSNEDPWTFGGGTKLEIK
Question: How did the EC50, saporin (Fab-ZAP) cell killing, G401 Cells [1] turn out when B2 was run?
Answer: The EC50, saporin (Fab-ZAP) cell killing, G401 Cells was 6.7 pM.

Question: And the EC50, saporin (Fab-ZAP) cell killing, HEK293T Cells [1]?
Answer: The EC50, saporin (Fab-ZAP) cell killing, HEK293T Cells was 11 pM.

B3: SC6.41 (antibody, V domains shown)
VH: EVQLQQSGAESVRSGASVKLSCTASGLNIKDYYMHWVNLRPEQGLEWIGWIDPENGDTEYAPEFQGKATMTADTSSNTAYLQLSSLTSEDTAVYYCNACNYGSAYGYWGQGTTLTVSS
VL: DIVLTQATPSVPVTPGESVSISCRSSKSLLHTKGDTYLYWFLQRPGQSPQLLIYRMSNLASGVPDRFSGSGSGTVFTLRISRVEAEDVGVYYCMQHLEYPFTFGSGTKLEIKR
Question: Which EC50, saporin (Fab-ZAP) cell killing, G401 Cells [1] does the source give for B3 here?
Answer: The EC50, saporin (Fab-ZAP) cell killing, G401 Cells was 2.6 pM.

Question: And the EC50, saporin (Fab-ZAP) cell killing, HEK293T Cells [1]?
Answer: Its EC50, saporin (Fab-ZAP) cell killing, HEK293T Cells is 5.7 pM.

B4: SC6.2.35 (antibody, V domains shown)
VH: QVQMQQSGAELMKPGASVKLSCKATGYTFTGYWIEWVKQRPGHGLEWIGEILPGSGRSNSNEKFKGKATFTADTSSNTAYMQLSSLTTEDSAIYYCARGKLSWGQGTLVTVSA
VL: DIVLTQSPASLAVSLGQRATISCRASESVDSFGNSFMHWYQQKPGQPPKLLIYAASNLGSGVPARFSGSGSGTDFSLNIHPVEEDDSAMYFCQQSKEVPRTFGGGSRLEIKR
Question: With B4 as the binder, how does the EC50, saporin (Fab-ZAP) cell killing, G401 Cells [2] read?
Answer: The EC50, saporin (Fab-ZAP) cell killing, G401 Cells was 1.1 pM.

Question: What about the EC50, saporin (Fab-ZAP) cell killing, HEK293T Cells [2] of the same binder?
Answer: Its EC50, saporin (Fab-ZAP) cell killing, HEK293T Cells is 0.45 pM.

Question: And the elimination of BR13 and BR64 breast NTX tumor cells, antibody at 0.2 nM with Fab-ZAP [2]?
Answer: The elimination of BR13 and BR64 breast NTX tumor cells, antibody at 0.2 nM with Fab-ZAP was 70% and 80%.

B5: SC6.58 (antibody, V domains shown)
VH: EVKLLESGGGLVQPGGSLKLSCAASGFDFSRYWMSWVRQAPGKGLEWIGDLNPDSSAINYTPSLKDKFIISRDNAKNTLYLQMSKVRSEDTALYYCTLITTLVPYTMDFWGQGTSVTVSS
VL: ETTVTQSPASLSMAIGEKVTIRCITNTDIDDDMNWYQQKPGEPPKLLISEGNGLRPGVPSRFSSSGYGTDFVFTIENMLSEDVADYYCLQSDNLPLTFGSGTKLEIK
Question: Which results are given for B5?
Answer: EC50, saporin (Fab-ZAP) cell killing, G401 Cells [1]: 35.1 pM; EC50, saporin (Fab-ZAP) cell killing, HEK293T Cells [1]: 86.8 pM

B6: SC6.21 (antibody, V domains shown)
VH: SDVQLQESGPGLVKPSQTLSLTCSVPDYSITSDYHWHWIRQFPGNKLEWMGYISSRGSTNYNPSLKNRISITHDTSENQFFLKLTSVTTEDSATYYCAGLSQLALDYWGQGTTLTVSS
VL: DIVMSQSPSSLAVSVGEKVTLSCKSSQSLLYSSTQNNYLAWYQQTPGQSPKLLIYWASTRESGVPDRFTGSGSGTDFTLTISSVKAEDLAVYYCQQYYSYPWTFGGGTKLEIK
Question: B6 was tested. Which EC50, saporin (Fab-ZAP) cell killing, G401 Cells [1] did it give?
Answer: The EC50, saporin (Fab-ZAP) cell killing, G401 Cells was 200 pM.
